Source: patent US20130224191A1, “NOTUM PROTEIN MODULATORS AND METHODS OF USE” (priority 2010, published 2013)

Assays:
human Notum D141N, D141S = test: Neutralization of point mutated human Notum, 4-MUH assay; assay type: biochemical
Procedure: (§1) In addition to the assays described in Examples 23 and 24, a fluorescent esterase substrate, 4-methylumbelliferyl heptanoate (Sigma), can be used to measure the activity of hydrolases using standard assay conditions (Richardson and Smith, 2007, PMID: 17620441; Jacks and Kircher, 1967, PMID: 5582971). Briefly, 4-MUH was dissolved in DMSO to a final concentration of 1.2 mM. This substrate was diluted 1:10 into assay buffer (0.1M Tris, pH 7.5, 50 mM NaCl, 0.05% Brij) and incubated with defined amounts of Notum enzyme or point-mutated Notum enzymes, and enzymatic release of the fluorescent molecule 4-methylumbelliferone monitored (355 nm excitation, 460 nm emission) using a Wallac Victor3 Multilabel Counter (Perkin Elmer).
(§2) Similarly, the macaque residue at this position was point mutated to the human residue (N141D). […] However, these point mutants differed in their ability to be neutralized by SC2.D2.2 (FIG. 26).

[1] = test system: Wnt3A-mediated induction of luciferase in the 293.TCF cells; test: Wnt3A canonical signaling assay, bioactivity of Notum constructs; assay type: cell-based, human; conditions: without added Notum
Description: To generate a stable population of cells that contain a reporter for the activation of canonical Wnt signaling, HEK 293T cells were transduced with a lentiviral vector, pGreenFirel-TCF (System Biosciences) which encodes a bifunctional GFP and luciferase reporter cassette under the control of a minimal CMV reporter linked to four tandem repeats of the transcriptional response elements for TCF. Transduced cells populations, termed 293.TCF cells, were subsequently used in a Wnt3A canonical signaling assay as follows: 2.5×10^4 293.TCF cells were plated per well of a 96-well tissue culture plate in 50 μL of serum-free DME medium. After 24 hours of serum starvation, 25 μL of various dilutions of conditioned medium (CM) from L/Wnt3A cells (ATCC CRL-2647; Willert, 2003) or undiluted CM from parental L-cells (ATCC CRL-2648) along with 25 μL of DMEM+0.2% FBS were added to each well. Eighteen hours after addition of CM, 100 μL of One-Glo solution (ProMega Corp.) was added to each well. The contents of each well were then mixed thoroughly to lyse the cells, 100 μL of lysate transferred to black 96-well plates, and the luminescence in each well read after 5 mins using a Wallac Victor3 Multilabel Counter (Perkin-Elmer Corp). […] More particularly, as the Wnt3A+ CM media is diluted from 25% down to approximately 3%, activation of the Wnt pathway is reduced with a corresponding decrease in luminescence.
Once the luciferase reporter system was established, assays for determining the bioactivity of various Notum modulators were performed as follows. 2.5×10^4 293.TCF cells were plated per well of a 96-well tissue culture plate in 50 μL of serum-free medium. After 23 hours of serum starvation, 25 μL of DMEM+0.2% FBS containing various Notum modulators at various concentrations (e.g., hNotum-His, hNotum-hFc, hNotum-S232A-His, murine Notum-His, murine Notum-hFc, macaque Notum-hFc, control protein-His or control protein-hFc obtained as per Examples 7, 8 and 13 above), were added to the cells. After 1 hour, 25 μL of Wnt3A or control L-cell CM were added to each well. Eighteen hours after addition of CM, 100 μL of One-Glo solution (ProMega Corp.) was added to each well, the contents of each well mixed thoroughly to lyse the cells, 100 μL of lysate transferred to black 96-well plates, and the luminescence read after 5 minutes.

[2] = test system: mouse lineage-depleted NTX tumor cells from SCRx-CR4; test: Cell survival/proliferation, CellTiterGlo, SCRx-CR4; assay type: cell-based, human; conditions: antibody 10 μg/mL, versus MOPC isotype control
Procedure: To determine whether Notum protein impacts cell proliferation and/or apoptosis of human colorectal cancer cells, HCT-116 cells or mouse lineage-depleted NTX tumor cells (i.e. human tumor cells) were plated as described below and exposed to recombinant hNotum (e.g. hNotum-His or hNotum-hFc) and anti-Notum antibodies. Cell numbers were then assessed 12-14 days later.
Cells were then incubated for 14 days at 37° C., 5% CO2 and 5% O2 and the number of viable cells was assessed using Promega's CellTiterGlo assay kit per the manufacturer's instructions. For the HCT-116 cell line (a commercially available colorectal tumor cell line), cells were plated at 2,000 cells per well in DMEM+1% FBS, followed 24-hours later by the addition of serum free DMEM containing recombinant human Notum in the presence or absence of monoclonal antibodies SC2.D2.2 or SC2.10B3. HCT-116 cells were then incubated for 12 days at 37° C., 5% CO2 and cell viability was assessed with Promega's CellTiterGlo assay kit. Higher readings are indicative of higher viable cell counts.

macaque Notum N141D [3] = test: Neutralization of point mutated macaque Notum, 4-MUH assay; assay type: biochemical
Procedure: as §1, §2

macaque Notum N141D [4] = test: Neutralization of point mutated macaque Notum, TCF assay; assay type: cell-based
Description: as §2

B1: SC2.D2.2 (antibody, V domains shown)
VH: DVQLVESGGGLVQPGGSRKISCAASGFTFSSYGMHWVRQAPEKGLEWVAYISSSTVTTYYADTVKGRFTISRDNANNTLFLQMTSLRSEDTAMYYCSRQNWDGGYFDVWGAGTTVTVSS
VL: DIVLTQSLASLAVSLGQRATISCRASKSVSSSGYSYMHWYQQKPGQPPKLLIYLASNLESGVPARFSGSGSGTDFTLNIHPVEEEDAATYYCQHSRALPLTFGAGTKLELKR
notes: also called murine SC2.D2.2
- neutralization of mutant Notum protein (human Notum D141N, D141S): eliminated the ability of SC2.D2.2 to neutralize the resultant protein
- effect of antibody alone on induction of luciferase due to Wnt3A CM [1]: does not inhibit the induction of luciferase due to Wnt3A CM
- effect on proliferation / cell numbers [2]: significantly less proliferation
- neutralization of mutant Notum protein (macaque Notum N141D [3]): enabled the antibody to neutralize the mutant protein
- neutralization of mutant Notum protein (macaque Notum N141D [4]): now enabled SC2.D2.2 to neutralize the mutant protein
